Measurements from paper PMC9219861.

Molecular target: ULK1 (UniProt O75385)
Assay: FLAG co-IP, ULK1 blot
Conditions: reference: Flag-CHK2 WT, EBSS; sites T68

Substance: CHK2 (from UniProt O96017) Flag-CHK2 T68A, EBSS
- binding against the reference: weaker
